The target in this series is hAgo1 (Homo sapiens, UniProt Q9UL18 1-857). Description: X-ray crystallography.

For UGAGGUAGUAGGUUGUAUAGUU (ssRNA, 5' phosphate) [let-7 22mer guide], the binding result is “binds”.

These data come from PMC3769929.
